The data set is described as follows: soluble on expression in E. coli; label from the status in PepcDB or PDB records.
As for “MLNSEKMIASLDQQDLAHAEKYFQKALKEDDADSLIALGEYLESIGFLPHAKRIYLQLADDYPELNINLAQIAAEDDAIEEAFLYLDKVSKDSPNYLSALLVMADLYDMEGLTEVAREKLLQAVGISPEPLVIFGLAEIDMSLQHFKEAIDYYAQLDNRQILELTGISTYQRIGRAYASLGKFEAAIEFLEKAVAIEYEDETVFELATLMYDQENYQKANLYFKQLETINPDYPGYEYGYALSLHEEHKTSEALRLVQQGLRKNAFDSQLLLLASQLSYELHDRQNAENYLLQAKEVAVDDEEILMRLVTLYFDAERFEEVIALNRETIDNVLTKWTIAKAYHALEQEEVALALYNEISADLAENPEFLQDYAYLLREFGQFHKAIQMATAYLRQVPDDVNMQDFLDHIKHQQSE”, the “soluble on expression in E. coli” value is “not soluble”.
The result for “MLPDPPRDPFNNLDPAQTVRVLPRHLAGPGQADLETIWAFPFDDGWHLHQGLEGMVFAISPCARLWTRFAPKPEERGADTWTIGMDRAPFGPRAWEITFDATTPAELLRDVHTELLDLYLEDRHSEKNHLVEDPTAPHEVYTPLLTHGWSHSVKTDGTQTFLPPEGLGGVRHRYATTGSDGPVWRAWGGYPSAPHWQAQFSAGAPTTLAAAFTASLISTEPLHRAVKQIPFHTRRHLYVAPAAAPQPPSHLPPAPPSAPHPAGRARLEHHHHHH” reads “soluble”; that for “MLPETTTLQPLPSVTTIMNEPPARSPMEDYYLFNQFQYNQNPYVYPPQPVYYNTWQDASTHHFDPFQSYQIPSPYEQPIQSSMCTTPLQPLEDSRIIFDESLTKNENEQKSFVEQDSSYESSGNRFGSQKGKKIAKVIRDACCSHCSTTTTTLWRKNDEGNLECNACNLYYRHNKVKRPLSLCKQKPTTRKRRQAKKE”, “not soluble”.
Consider “MLPIIYSLRNCPYAMRARLAIFKAKQAVLLRDLVLSHKPAEMIAVSPKGTVPVLVLANSTVIEESLEVMLWALQQTDPDDLLHCQQEGALPEMLSLINEFDNGFKTSLEAYKCAKRYQEDNIAQCRVVCQQYIEQLEQRLTEHMFLMSDKESLADIALVPFIRQFARVERQWYLQSPYPRVRRWLNSYLQSPVFTKVMAKHPLWLDNQQDILFGVN”, for which the “soluble on expression in E. coli” value was “not soluble”.
In the case of “MLPPYNYMDNGTLKGISIDLLEAITEKMGKKVTREEIHLVSWTEGYQAALTRNNTVLFVTARTPEREQSFKWVGPIYSDKYVLFAKRDPGVTIDGPEDLKEYRIGVISDDVAAQQLLNIGVNQSQLEHHHHHH”, the “soluble on expression in E. coli” value is reported as “not soluble”.
In the case of “MLPTILALLLAPLATALPPTIIRSPKVTGWGWWSEMESCPPGYFAHGMRIKYERDSGSLDETGLNAIELACKNRAVPSSGDTYIKGAEGVFGGWQAYQYCPQGEYVIGFALQSESWRGGNKDDVAANNFAAYCGRPEAPRRRYSWIQGSVNERGSWTRDQFCPARQIVCGIIVQIEPAQAPHVDDASLDSVGLKCCDF”, the “soluble on expression in E. coli” value is “not soluble”.
For “MLQIIVPMAGAGSRFAVAGYTDPKPLIPVHGVPMIKVVIDNLTPDCPHRFIFICQAEQVAAYGLREKLNAWAPGCGIVELGGLTGGAACTVYAARHLINYDQQVMIANSDQYVDVDINAYLHAMNECDAAGLIMTMKASDPKWSFVGFDSQGHINRVVEKEVISDEATVGIYNFRSGGQLVSAIEAMVLKDLRVNGEFYVAPAYNELIEQGAKVIHYSIGAEGHGMYGLGIPVDLNLFLSLPLSRQAASGVGNLEHHHHHH”, the “soluble on expression in E. coli” value was “not soluble”.
As for “MLRHNVPVRRDLDQIAANNGFDFHIIDNEIYWDESRAYRFTLRQIEEQIEKPTAELHQMCLEVVDRAVKDEEILTQLAIPPLYWDVIAESWRARDPSLYGRMDFAWCGNAPVKLLEYNADTPTSLYESAYFQWLWLEDARRSGIIPRDADQYNAIQERLISRFSELYSRELFYFCCCQDTDEDRSTVLYLQDCAQQAGQESRFIYIEDLGLGVGGVLTDLDDNVIQRAFKLYPLEWMMRDDNGPLLRKRREQWVEPLWKSILSNKGLMPLLWRFFPGHPNLLASWFEGEKSQIAAGESYVRKPIYSREGGNVTIFDGQNNVVDHADGDYADEPMIYQAFQPLPRFGDSYTLIGSWIVDDEACGMGIREDNTLITKDTSRFVPHYIAG”, the “soluble on expression in E. coli” value is reported as “not soluble”.
With “MLRHSRHNAVFILDTAGIIMGISEGAQRSYGYTHKDVHGKYFDMLFTEESRKQQKPELELAKVLQYGTAADYNEFVHKDGRHIWTEGESLLITDVWGDSFIIKNVHSLDKEKEEQRNLQQQNEKLLRINNDLDTFVYTASHDLKNPVSNIESLVSIMQYELKHGADAEAVEPVMSRITEALNRFKTTLNELTEISRIDAPVDTDEMYVSFDSILQEVMYDVQDLVDSTEASIQSDFSAATMVRFSKKNVRSILFNLLSNALKYRSPERKPEIYIETKPAGEYILLSVRDNGIGIEPAQHKKVFQFFKRLHTHVQGTGVGMGIVKKIMDNTGGKITLESIPGKGSAFTVHFKQ”, the “soluble on expression in E. coli” value was “not soluble”.
Consider “MLRPLSKTDCPMLQEINAKALGYLVSLDLLERQYERLIEDCHHYFLAYADKDTNQLLGYVHAERYETLYASDGLNLLGLAVLPAYQRRGIGSALLRALESQARQEGIAFIRLNSASHRKEAHAFYRNLDYADDKTQLRFIKNLQGDDNDF”, for which the “soluble on expression in E. coli” value is listed as “not soluble”.
Consider “MLRSLLIRATAPAVCAGLLWTAAPAHAQSPAPTRPVSSDTWADRATGTYRALQKHLYEGPGDHGLYLEHTPRQATDQEHSYLWPFREAAQAAVDMQRLPRTGPAYRQDAAERFDTAELYHTGGERPGYRSYLPAPLGTGGDVYYDDNAVVALSQLDQYEETGDARYLRRAEQVVPVVSRAWDGDAAKACPGGMDWYDAPGNTIRATNVTALSAQLAARLYEHTRNRAYLDKAEQWYGWVYACMRKAPGLYVNDRGDDGSTNETLWTYNSGAMIGTATALYRGTGDARYLEKAVADARGSLAYWTGGTRLHDQPAVFNAFYFKDLLDLDAVRPDSAYLSAMSAYADNTYRSNRDASSGLFRFQPSNGGDYDPAAPAATLNQSAMVQIFATLADATRRDHRTSLEHHHHHH”, for which the “soluble on expression in E. coli” value was “not soluble”.
With “MLRTPNNRHKIDSILVLGTAQYDGVPSRQFAARLRHAAKLWRLHEIQHVYTVGGKLPGDRFTEAEVAREYLIKEGVDPDLIFVSAVGNDTVSSYEALDPEKLGRVLIVTDPNHSYRAVRIARRMGFDAKPSPTTYSPAKFPSIVYFLTLSHEWGGVVVQDVSRLLGERVADKVEASLRAIQGLLRPSRRARHEQLRRLKKLEHHHHHH”, the “soluble on expression in E. coli” value is reported as “soluble”.
The same measure for “MLSEASSVQSPTVSIRRRTCVVCGSSTLNSYVTSFTRVPDKQEQWVTVLANGDAGFEDQLKASLATGRKYICYDHFDRQYFAQRKTDDGFELIRNRNPMAFKNATFIRHVDLRSTSSFVPDDSSEEPIPAKRLKIMSDLKGRGGELDPNSMTFLMKTIFLHVKKTMEEADEARRKHEIKEELD”: “not soluble”.
In the case of “MLSFRNWWAREDSNPRPPGYEPGALPTELRAHTAIRLYSNKTPLSRSVISMKKDPIKEMLVKYPRILVIKAALKILKDGNKIDRERIEKTIVKIMTKKEG”, the “soluble on expression in E. coli” value is given as “not soluble”.
The result for “MLSFVKELNFEINQKKYFIKIYLQPRIKYIKIKIINHQIVCLINHLKLINIAEEFIKNNKLKILKIYENDLKKIKYDEQSLDWIILLGIKFTTIKIKNNNFHCQFNFQKQIIYLYDQNQNLTNTKLLYQKILIYLAEIIFPQIIKNAQNITTLTVKKYVFGFYKSQWGVYNKIKHTIGLSYFLVHYDQDIINYVVIHELAHIKYQHHQKSFWDFVLKYCKNAKIYNNQLKFLEHHHHHH” reads “soluble”; that for “MLSIKHLTKIYSGNKKAVDDISLDIQSGEFIAFIGTSGSGKTTALRMINRMIEATEGQIEIDGKDVRSMNPVELRRNIGYVIQQIGLMPHMTIKENIVLVPKLLKWTKEEKDKRAKELIKLVDLPESFLERYPAELSGGQQQRIGVVRALAAEQDIILMDEPFGALDPITRDTLQDLVKTLQRKLGKTFIFVTHDMDEAIKLADKICIMSEGKVVQFDTPDNILRHPANDFVRDFIGQNRLIQDRPNDKTVEGVMIKPITIQAEATLNDAVHIMRQKRVDTIFVVDSNNHLLGFLDIEDINQGIRGHKSLRDTMQQHIYTVQIDSKLQDSVRTILKRNVRNVPVVDDQQRLVGLITRANVVDIVYDTIWGDSEDTVQTEHVGEDTASSKVHEQHTTNVKVRDIGDDKS”, “not soluble”.
For the sequence “MLSIKQLSYALAVSKTLHFRKAADLCHVRQSTLSTGVSELERQLGIKIFERDNKKVLVTPLGREVLDKASNIMLQLEDMAHLDHSCGEP”, the “soluble on expression in E. coli” value is reported as “not soluble”.
Consider “MLSINPNEQTEKDNYKLLTGSIIPRPVAFVTSVTKEGVLNGAPYSYFNIVAANPPLISVSVQRKAGERKDTSRNAIEKGEFVVHISDESYVAAINETAANLPPNESEIELAKLTPIESEVISVPGVKEANIRMECVLERAIPLGGTEDSPACDLLIGRVVRFHVAEHLYEKGRIHAEGLKPISRLAGHNYAKLGEQFELVRPI”, for which the “soluble on expression in E. coli” value is given as “soluble”.
With “MLSTVFLLATLAASAAADGYSCARNTLINPPQDLSKPYYYPETWRENMEPPQYAPNQKCNWKINVPQGMYATVIFYKKTKYEIGIQCAYPGKDLEYINDYEQSPYIFTSPQFQVDLKVGDKPGAFSFKVVWSKYPPGSAMNIELDGIHSISGVASSFYTTYTAINQVMIVGFSVPDVDTNLLRQSAIYDGDSVNAKFLGNLFDALEGQIVSTGNKLTIYTFGLENQVDNTLFMGLDTKAAGDIEQYTGLNCPVDRTRGCSIILHSYFYATAEARISRQPDYLMLPDSFPYNATLKIYGETLQDSSLFAAVNKSNYQTMFPMKVTNSLKIYHLDHDIVSIDVTNNADEAKWSTVYDGRNIKVQSMDYGRTSFYQDTMETFTTEPNTQMYFKFNVKYFDVNGPTSLAIKVYNNAKIVYSETYTATNLPTPYNVRVYGDKMDINYQTFGNYTQGFEVNIVTTKNG”, the “soluble on expression in E. coli” value is recorded as “not soluble”.
In the case of “MLSVENLKVVYRGVILALDGVSLEVGEGEAVALLGPNGAGKSSLVRTIAGLLPKFEGRVLDGKVRLFGREATHLDPVGISRLGLTAILEGRPLFRYLTPVENLMAAGHRLPPKALKEGMEEVFARFPRLYERRHEQAGYLSGGEQQMLLLGMALLTRPRLLVVDEPSLGLAPKLVGEVMQTLDALRREKGLSLLLVEQNARAALGVVDRVYVLERGRVVFEGSAKEAMEDQDVMEFYLGKEEVGFRQARRYRRRKRWV”, the “soluble on expression in E. coli” value is “soluble”.
With “MLSYHTDIPTDLPLLRQAVEAIRREESGGAVPDSDRPRVIYEARNRLYAIRTAQGEQVVKSFRIPIAIQRVVYSFFRPSKAARSYRNAIRLGRCGIGTPRPSGYAIEREKGLLCRSYYVCESMHDCRDIRLSMQGVEGGEALLRALAGFIARMHRAGIHHIDLSPGNVLYRTDEKGEYSFYLIDLNRMKFYDKPIVGRKAYANFARLSFCPAVSKQLAEYYAEAQGLNTDGVVQGVQSESDRFFRSKVRKYARKALVREQKRMSRSAFRRAYIRYRSVRLIRKLTGCTRLFRIENDLYTSYLEVGDLRHTLKRAEGYSSPKNVQ”, the “soluble on expression in E. coli” value is listed as “not soluble”.
“MLTEDDIKEIRENREMIEQGRREPVTLYIKGVSEKDPITGEEIQGEPRKENVQLVWKKFTSVEKTKFADLDVKKGEALVTFPLNVDLENIEKIERKGVFYVIELIDERGLGGVNRREVIVKRVI”: the “soluble on expression in E. coli” value is “not soluble”.
With “MLTEQEKDIIKQTVPLLKEKGTEITSIFYPKMFKAHPELLNMFNQTNQKRGMQSSALAQAVMAAAVNIDNLSVIKPVIMPVAYKHCALQVYAEHYPIVGKNLLKAIQDVTGLEENDPVIQAWAKAYGVIADVFIQIEKEIYDQMMWIGFKPFKITNIKQESEDIKSFTVETEEYDFSEFTPGQYITVDVSSDKLPYRAKRHYSIVSGEKNHLTFGVKRDVTTEHEGEVSTILHDEIKEGDMINLAAPVGGFVLENTTEPQLFLGSGIGVTPLVAMYEAASAKGLDTQMVQVAENEQHLPFKDNFNSIASHHDNAKLYTHLKDKQGYIGAEELQVFLANKPEIYICGGTKFLQSMIEALKSLNYDMDRVHYETFIPRLSVAV”, the “soluble on expression in E. coli” value is “not soluble”.

Source of the values: the DeepSol protein solubility set.
